This data set in a line: protein stability index of a GFP-peptide fusion (GPS, HEK-293T) (PSI 1-6); higher = more stable.
The mark [1] stands for this setting: treatment: DMSO, c terminus: a fixed tail appended.
[2] abbreviates: treatment: MLN4924 1 uM, 8 h, c terminus: a fixed tail appended.
Setting [3] is: treatment: DMSO, c terminus: native.
Setting [4] is: treatment: MLN4924 1 uM, 8 h, c terminus: native.

± gives the standard deviation.
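Note: 24-mer peptide tiles fused after GFP, lentivirally expressed, FACS-sorted into six equal bins by GFP/DsRed ratio, decoded by Illumina sequencing, PSI is the read-weighted mean bin number.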

QPGLSFLNLGSGTGYLSSMVGLIL [PCMTD2]: the protein stability index by setting is: under setting [1], 2.12 ± 0.15; under setting [2], 2.28 ± 0.27.

For RSQMQGPRTRARLGANEVLLVVGG [KLHL12], the protein stability index is, setting by setting: under setting [1], 2.39 ± 0.39; under setting [2], 2.62 ± 0.37.

On to EYMETGSLEKLLASEPLPWDLRFR [RIPK4], for which the protein stability index is 2.76 ± 0.3 under setting [1] and 3.27 ± 0.6 under setting [2].

Regarding NEVRRGSPVLLGWVEQAYADKCVC [TIAF1], the protein stability index was determined as 2.64 ± 0.087 under setting [1] and 2.88 ± 0.27 under setting [2].

As to SHFVFVIEVKTKGGSKYLIYRRYR [NCF4], the protein stability index under setting [1] turned out to be 2.81 ± 0.56 and the protein stability index under setting [2] is 2.48 ± 0.33.

Regarding SSSQEIPTMPQPIEKVSVSTQTKK [ZMYND11], the protein stability index reads like this: under setting [1], 5.33 ± 0.42; under setting [2], 5.37 ± 0.23.

As for DQDEGEWGLDQEQVFSLGDGVSGG [ZBED1], the protein stability index runs as follows: under setting [1], 5.57 ± 0.17; under setting [2], 5.42 ± 0.12.

Take YSLLYLEHKGWYSWVLSMLYGFLL [CLPTM1]: the protein stability index by setting is: under setting [1], 2.18 ± 0.37; under setting [2], 2.26 ± 0.49.

In turn, KQIYNLIHLDPRTREGFTLLHLAV [FEM1B] returned a protein stability index under setting [1] of 2.66 ± 0.52 and a protein stability index under setting [2] of 2.67 ± 0.61.

For TVHEVDIFRCFCPVFLHSQMLWEL [DENND6A], the protein stability index is 2.89 ± 0.61 under setting [1] and 3.33 ± 0.49 under setting [2].

In the case of FLLAFGLMIIVCIDQWKNKIWPEI [RETREG3], the protein stability index is 2.94 ± 0.4 under setting [1] and 3.09 ± 0.35 under setting [2].

In the case of GSLCSLWFGASVLSLLELLELLLD [SCNN1D], the protein stability index amounted to 2.17 ± 0.36 under setting [1] and 1.91 ± 0.27 under setting [2].

Turning to YAHQPRTADEIPMEPGDIIGVAGN [FUT8], the protein stability index runs as follows: under setting [1], 4.2 ± 0.24; under setting [2], 4.36 ± 0.17.

In the case of YLDETCTCFVRDGKTYCKRDYVRL [ISL2], the protein stability index by setting is: under setting [1], 2.68 ± 0.084; under setting [2], 2.95 ± 0.3.

For the sequence AAWKGRVLLPETQKRQQLSEDTLT [C22orf31], the protein stability index reads like this: under setting [1], 3.83 ± 0.31; under setting [2], 3.84 ± 0.38.

Turning to SRNFGVRNQGNFSVVGTVLAATQA [ZC2HC1C], the protein stability index runs as follows: under setting [1], 2.96 ± 0.19; under setting [2], 3.16 ± 0.12.

Take LNSMPKRLCLVCGDIASGYHYGVA [ESRRG]: the protein stability index is 2.48 ± 0.22 under setting [1] and 2.23 ± 0.39 under setting [2].

In the case of PKFKKWCDDYFFIAHRGERRGIGG [CPOX], the protein stability index came out at 2.54 ± 0.14 under setting [1] and 2.56 ± 0.26 under setting [2].

As for DDGTYSQVQCHSYTGYCWCVTPNG [SMOC2], the protein stability index by setting is: under setting [1], 2.48 ± 0.14; under setting [2], 2.66 ± 0.47.

Sequence FQFASIDVAGNLDYKALSYVITHG [MYL5] yielded a protein stability index under setting [1] of 2.51 ± 0.47 and a protein stability index under setting [2] of 2.29 ± 0.31.

PHKERYFDRVDENNPEYLRERNMA [ADD1]: the protein stability index by setting is: under setting [1], 4.47 ± 0.36; under setting [2], 4.69 ± 0.14.

With REAKEGDCGDILRLIRELAEFEKL [SAT2], the protein stability index under setting [1] turned out to be 2.95 ± 0.3 and the protein stability index under setting [2] is 3.09 ± 0.47.

Consider PPYSRLSPRDEYKPLDLSDSTLSY [SMAD6], for which the protein stability index reads like this: under setting [1], 3.89 ± 0.18; under setting [2], 3.84 ± 0.24.

Take ANFHLNDLEAPHEDDAEGEGEWD [TCF25]: the protein stability index stood at 5.63 ± 0.14 under setting [3] and 5.39 ± 0.22 under setting [4].

Consider FDKLALRFHGRLLFLKDVLGDEIC [KCTD13], for which the protein stability index was 2.48 ± 0.41 under setting [1] and 2.34 ± 0.18 under setting [2].

As to VEALQLSARWLEVLRTYLELVLCV [FBXO33], the protein stability index was 2.58 ± 0.35 under setting [1] and 2.46 ± 0.73 under setting [2].

For LIIFDKQSSQRMRQNLKLLVEETS [CEP70], the protein stability index runs as follows: under setting [1], 2.1 ± 0.25; under setting [2], 2.04 ± 0.35.

KSVRLARELESREAELRRRDTFYK [CHCHD6] showed a protein stability index under setting [1] of 4.23 ± 0.26 and a protein stability index under setting [2] of 4.36 ± 0.29.

As for PGAHGRFMPQGAGGHTREARIQTL [RSAD1], the protein stability index runs as follows: under setting [1], 3.63 ± 0.35; under setting [2], 3.67 ± 0.29.

For the sequence HPANRSCRETGSFLDLFRYRVLLG [SLC22A15], the protein stability index is, setting by setting: under setting [1], 2.48 ± 0.44; under setting [2], 2.15 ± 0.42.

EGFLFVFGGQDENKQTLSSGEKYD [GAN] gave a protein stability index under setting [1] of 3.11 ± 0.28 and a protein stability index under setting [2] of 3.73 ± 0.64.

As for NKALSIILHLICLLEKVPCTLEQD [FEM1C], the protein stability index by setting is: under setting [1], 2.87 ± 0.25; under setting [2], 3.13 ± 0.71.

As for PWKKCCFSGDGEYIVAGSARQHAL [RBBP5], the protein stability index under setting [1] was determined as 2.14 ± 0.27 and the protein stability index under setting [2] amounted to 2.36 ± 0.22.

Turning to GYSTHADFVLEMNTAKSTSRVTAF [NLN], the protein stability index worked out at 2.29 ± 0.2 under setting [1] and 2.51 ± 0.12 under setting [2].

Turning to LRQKGNRNTHKDLLRFAQVFSQMI [FEM1B], the protein stability index stood at 2.38 ± 0.56 under setting [1] and 2.26 ± 0.32 under setting [2].

Take PATSPLVLAIPRRLRVELECEEGE [TRIM35]: the protein stability index under setting [1] worked out at 4.92 ± 0.22 and the protein stability index under setting [2] stood at 4.78 ± 0.13.

VLSREQSRRSYDDQLRSGSPPKSP [DNAJC4]: the protein stability index by setting is: under setting [1], 5.29 ± 0.26; under setting [2], 5.45 ± 0.12.

For the sequence LQKKVEQLSRELSTLRNLFKQLPE [CEBPB], the protein stability index was determined as 2.3 ± 0.32 under setting [1] and 2.43 ± 0.41 under setting [2].

With AMEYAPGGTLAEFIQKRCNSLLEE [NEK8], the protein stability index runs as follows: under setting [1], 3.56 ± 0.36; under setting [2], 3.3 ± 0.29.

Consider PPPPPPPPAELKAEPGFEPADCKR [CEBPB], for which the protein stability index is, setting by setting: under setting [1], 5.52 ± 0.16; under setting [2], 5.4 ± 0.28.

On to ENVSVEMLLRKFAESKGTGREKPG [FCHO1], for which the protein stability index under setting [1] was found to be 3.9 ± 0.086 and the protein stability index under setting [2] came to 4.23 ± 0.26.

For the sequence SHLLVVEPEKLYAMPDPAGPDGHL [ESRRA], the protein stability index came to 3.68 ± 0.17 under setting [1] and 3.82 ± 0.27 under setting [2].

HVRHMAYQLCHALRFLHENQLTHT [CLK3]: the protein stability index reads like this: under setting [1], 3.06 ± 0.3; under setting [2], 3.01 ± 0.38.

For LKKSRGKFIKPWESPDEMELDELL [PTPRD], the protein stability index by setting is: under setting [1], 3.52 ± 0.35; under setting [2], 3.15 ± 0.44.

As to GCKGFFRRSVRKNHMYSCRFSRQC [HNF4A], the protein stability index reads like this: under setting [1], 2.15 ± 0.18; under setting [2], 2.27 ± 0.36.

For PAVENKQQIGDAIRMIVRGTLGSC [PLK2], the protein stability index runs as follows: under setting [1], 3.03 ± 0.32; under setting [2], 3.03 ± 0.19.

Take GVTEEQEGFADGFVKALDDLHKMN [JUNB]: the protein stability index runs as follows: under setting [1], 4.69 ± 0.17; under setting [2], 4.47 ± 0.32.

As to YTSSLACHRALQDAFSGLFWQPS [MNAT1], the protein stability index runs as follows: under setting [3], 2.29 ± 0.51; under setting [4], 2.01 ± 0.33.

For the sequence LLLELKGLQEEPVEGFRVTLVDEG [CDC34], the protein stability index runs as follows: under setting [1], 2.64 ± 0.29; under setting [2], 2.66 ± 0.21.

On to GDVMHLSQSPSVSQLSVLSLSGVM [PRAME], for which the protein stability index under setting [1] is 2.43 ± 0.42 and the protein stability index under setting [2] worked out at 2.28 ± 0.31.

In the case of DSIKDEDRTSLATFHEGKHNISHM [WDFY1], the protein stability index is 4.66 ± 0.23 under setting [1] and 4.59 ± 0.28 under setting [2].

In turn, IAIVSVMVILISIVIFCLETLPEL [KCNA1] yielded a protein stability index under setting [1] of 2.39 ± 0.25 and a protein stability index under setting [2] of 2.44 ± 0.16.

With LILASELSRLSVNSVTAGDYSRPL [TSN], the protein stability index runs as follows: under setting [1], 2.45 ± 0.33; under setting [2], 2.37 ± 0.19.
